# Test results from US8329882B2, “Genetic control of mammalian cells with synthetic RNA regulatory systems” (California Institute of Technology, priority 2009, dated 2012).
# Entries after “also recorded” stand apart in the source; their conditions may differ.
# B1: inactive ribozyme: inactive, scrambled hammerhead ribozyme lacking an aptamer, SEQ ID NO: 30; cells expressing it serve as positive control (nucleic acid)
# chain: CTCGAGGCGATCGCAAACAAACAAAGCTGTCACCGGATGTGCTTTCCGGTACGTGAGGTCCGTGAGGACAGAACAGCAAAAAGAAAAATAAAAATTTTTTTTTTAATTAATCTTGGGCCC
# B2: L2bulge18tc: tetracycline-responsive ribozyme switch, SEQ ID NO: 29 (nucleic acid)
# chain: CTCGAGGCGATCGCAAACAAACAAAGCTGTCACCGGATGTGCTTTCCGGTCTGATGAGTCCGTTGTCCAAAACATACCAGATTTCGATCTGGAGAGGTGAAGAATTCGACCACCTGGACGAGGACGGAGGACGAAACAGCAAAAAGAAAAATAAAAATTAATTAATCTTGGGCCC
# modifications: L2bulge18tc
# B3: L2bulge9: theophylline-responsive ribozyme switch, SEQ ID NO: 28 (nucleic acid)
# chain: CTCGAGGCGATCGCAAACAAACAAAGCTGTCACCGGATGTGCTTTCCGGTCTGATGAGTCCGTTGTCCAATACCAGCATCGTCTTGATGCCCTTGGCAGTGGATGGGGACGGAGGACGAAACAGCAAAAAGAAAAATAAAAATTTTTTTTTTAATTAATCTTGGGCCC
# modifications: L2bulge9
# Tests used:
# CTLL-2 cells [1] = conditions: 100 U/ml IL-2 every 48 hours; cell count every 24 hours
# Description: Cells were cultured in media containing the indicated concentration of (a) theophylline and (b) tetracycline.
# In the experiment shown in FIG. 19, 100 U/ml of IL-2 was fed to all cultures every 48 hours, and cell count was obtained every 24 hours by flow cytometry.
# JAK-STAT pathway = assay: Western blot analysis of phosphorylated STAT5 levels; assay type: cell-based, mouse; conditions: CffLuc cell line lacking the ribozyme switch system; 500 μM theophylline
# Description: Additional assays on a clonal cell line harboring three copies of L2bulge9 (clone 1264-48) were performed to verify the mechanism of growth regulation and examine the dynamic behavior of the regulatory system to variations in theophylline availability. Cell cultures were grown for one week in the presence of 500 μM theophylline and continued for a second week in the absence of theophylline. Theophylline was reintroduced for another four days at the end of the study. […] CD19 levels returned to basal levels within 48 hours of theophylline removal from the culture. The theophylline-responsive increase in CD19 expression was repeated upon reintroduction of theophylline to culture media. IL-15 expression patterns were verified at the transcript level through quantitative RT-PCR (Example 21, FIG. 8). […]
# Lysate samples were thawed on ice and a standard Bradford assay using Protein Assay Dye (Bio-Rad) was performed with a BSA standard to determine protein concentrations. […] Membranes stained for […] and p-STAT5 were washed 4 times with 100 ml TTBS and once with 100 ml TBS before fluorescent images were acquired and quantified with the Odyssey Infrared Imaging System (Li-Cor). Integrated band intensity was calculated with the Odyssey system using blank gel areas surrounding each band for background subtraction. […]
# T-cell proliferation = assay: In vivo T-cell proliferation study with biophotonic imaging of luciferase signal flux; parameters: species or system NOD/scid-IL2(ko) mice
# Description: To verify in vivo functionality of the T-cell proliferation regulatory system, we examined several clonal cell lines for theophylline-dependent growth in mice over time. Select clones were encased in a hydrogel matrix that contained either 0 μM or 500 μM theophylline and injected into the flanks of NOD/SCID-γc^−/− mice. […] Flux measurements over a 9-day period indicate an average of 40% increase in the growth rate of clone 1264-48 in the presence of […] (n1=4, n2=6, P=0.038 by Mann-Whitney U test).
# Cells were harvested by centrifugation at 1200 rpm at 4° C. for 10 min, washed twice with PBS, resuspended in PBS at a concentration of 2×10^6 cells/ml, and split into two 50 μl aliquots. […] In vivo growth of the injected cells was monitored by biophotonic imaging. […]
# Animals received intraperitoneal (i.p.) injections of 4.29 mg per mouse of freshly prepared luciferin substrate (Caliper Life Sciences; Hopkinton, Mass.) suspended in 150 μl of PBS. […] Luciferase activity was analyzed through Living Image Software 3.1 from Xenogen to quantify tumor region flux (photons per second).
# Statistical analysis was performed on growth rate data using the Mann-Whitney U test to calculate two-tailed P values. The doubling time of injected cells was calculated based on the total luciferase signal flux data collected over the course of each in vivo study. […]
# CTLL-2 cells [2] = assay: In vitro growth assay for stable CTLL-2 cell lines; assay type: cell-based, mouse; conditions: 500 μM theophylline, without exogenous IL-2
# Description: Growth behavior of individual clones was characterized by culturing under various theophylline concentrations. […] In the experiment shown in FIG. 7, the cell lines were cultured at various theophylline concentrations, and cell growth was monitored by counting viable cells. Clones indicated as 1261-xx stably expressed cd19-tk-il15-L2bulge9(1x). Clone 1264-xx stably expressed cd19-tk-il15-L2bulge9(3×). Growth behaviors differ from clone to clone, as would be expected from non-site-specific integration of the transgene into the host chromosomes. Theophylline-responsive increase in cell growth is evident in fifteen of the sixteen tested clones, and the growth elevation is statistically significant for the sample set (P=0.0150, 0.0011, 0.0013 for 100 μM, 250 μM, and 400 μM, respectively, by Whitney-Mann U test).
# CffLuc-pIL15 clones were cultured under regular conditions (RPMI 1640 media supplemented with 100 U/ml IL-2 every 48 hours, 0.2 mg/ml zeocin, no theophylline), washed twice with HBSS, and split into 5 identical aliquots in 6-well plates at approximately 0.01×10^6 cells/ml (4 ml/well). […] Cell density was calculated by dividing the number of detected live cells by the volume analyzed on the flow cytometer. […]
# CTLL-2 cells [3] = assay: Transient transfection in CTLL-2 cells, viability and fluorescence by flow cytometry; assay type: cell-based, mouse
# primary human TCM cells [4] = assay: TCM cell apoptosis time-course study (annexin V / SYTOX AAD / CD19 staining); assay type: cell-based; conditions: 500 μM theophylline, five days, compared to the inactive ribozyme control
# Description: (§1) Since short production timeline and streamlined processing may be important in clinical applications, characterization studies of TCM cells were performed on bulk transduced, unsorted populations to examine the robustness of the regulatory system in the scenario in which no population refinement was performed. Transduced cells were cultured in the presence and absence of 500 μM theophylline for five days, with daily monitoring of CD19 levels and cell viability by staining with CD19 antibody, annexin V, and SYTOX AAD dead cell stain. […] TCM cells stably expressing the cd19-t2a-il15-L2bulge9(3×) construct were cultured in the presence and absence of 500 μM theophylline. […] Values reported represent mean±s.d. from triplicate samples.
# On day 12 post stimulation, each cell line was washed twice with HBSS and used to seed six 25-ml cultures at 0.45×10^6 cells/ml. […] Fluorescence data were obtained using a Quanta Cell Lab Flow Cytometer with both a 488-nm laser and an UV arc lamp. Pacific Blue, PE, and SYTOX AAD were detected through 465/30-nm band pass, 575/30-nm band pass, and 610-nm long pass filters, respectively, Only SYTOX AAD-cells were included in data analyses. The population of live CD19+ cells was determined by gating for annexin V−/PE+ cells and the population of apoptotic CD19+ cells was determined by gating for annexin V+/PE+ cells.
# primary human TCM cells [5] = assay: TCM cell CD19 expression time-course study; assay type: cell-based; conditions: 500 μM theophylline, five days; compared to the inactive ribozyme control; three copies of switch
# Description: as §1
# On day 12 post stimulation, each cell line was used to seed four 25-ml cultures at 0.2×10^6 cells/ml. 500 μM theophylline was added to 2 flasks of each cell line, and no IL-2 or IL-15 was fed to any flask. Two aliquots from each culture were sampled every 24 hours for staining with PE-conjugated CD19 antibody (Beckman Coulter; Fullerton, Calif.). Fluorescence data were obtained with a Quanta Cell Lab Flow Cytometer using a 488-nm laser and a 575/30-nm band-pass filter.
molecule,measurement,setting,value
CN(C)[C@@H]1C(O)=C(C(N)=O)C(=O)[C@@]2(O)C(O)=C3C(=O)c4c(O)cccc4[C@@](C)(O)[C@H]3C[C@@H]12 [tetracycline],toxicity to CTLL-2 cells,CTLL-2 cells [1],some toxicity
Cn1c(=O)c2[nH]cnc2n(C)c1=O [theophylline],nonspecific activation of JAK-STAT pathway,JAK-STAT pathway,did not nonspecifically activate the JAK-STAT pathway
same,toxicity to CTLL-2 cells,CTLL-2 cells [1],some toxicity
B1,change in in vivo growth rate in response to theophylline addition,"T-cell proliferation; 500 μM theophylline vs none, 9-day period",did not show statistically significant changes; also recorded: no statistically significant difference
same,in vivo T-cell proliferation,"T-cell proliferation; regardless of theophylline availability (0 or 500 μM), 14-day study",Uncontrolled T-cell proliferation
same,growth rate in the presence of theophylline,CTLL-2 cells [2],decreased growth rate
B2,switch activity (fluorescence),"CTLL-2 cells [3]; tetracycline input, single- and multiple-copy switch systems",tetracycline-responsive ON switch activity
B3,reduction in the apoptotic cell population,primary human TCM cells [4]; apoptotic CD19+,up to 54%
same,increase in the live cell population,primary human TCM cells [4]; live CD19+,up to 24%
same,switch control over cell viability and proliferation,"CTLL-2 cells [3]; cd19-tk-t2a-il15 transgene, theophylline",ON switch control over cell viability and proliferation
same,basal knockdown (viability),"CTLL-2 cells [3]; three and four copies of switch, egfp-t2a-il2, viability comparable to No IL-2 Control and sTRSV Ribozyme",Stringent knockdown
same,increase in CD19 expression levels,primary human TCM cells [5],up to 15%
